B1: substrate-1 (RNA-1/Cy5 DNA) (DNA:RNA)
RNA: GGCACCAACACAAAACACAUCUACACUCAACAAU
DNA: GTAGATGTGTTTTGTGTTGGTGCC
B2: substrate-4 (RNA-4/Cy5 DNA) (mixed)
DNA 1: GGCACCAACACAAAACACATCTACACUCAACAAUCACUUU
DNA 2: GTAGATGTGTTTTGTGTTGGTGCC
modifications: strand 1 RNA with DNA at nt 17-24 (duplex end proximal to overhang)
B3: substrate-5 (RNA-5/Cy5 DNA) (mixed)
RNA: GGCACCAACACAAAACACAUCUACACUCAACAAUCACUUU
DNA: GTAGATGTGTTTTGTGTTGGTGCC
modifications: strand 1 RNA with DNA at nt 9-16 (middle of duplex)

molecular target: Prp43p;Ntr1p (1-120) (Saccharomyces cerevisiae (budding …, UniProt P53131;Q06411 1-767;1-120, |)); assay: EMSA
Sequence (P53131 whole entry, chain 1 of 2): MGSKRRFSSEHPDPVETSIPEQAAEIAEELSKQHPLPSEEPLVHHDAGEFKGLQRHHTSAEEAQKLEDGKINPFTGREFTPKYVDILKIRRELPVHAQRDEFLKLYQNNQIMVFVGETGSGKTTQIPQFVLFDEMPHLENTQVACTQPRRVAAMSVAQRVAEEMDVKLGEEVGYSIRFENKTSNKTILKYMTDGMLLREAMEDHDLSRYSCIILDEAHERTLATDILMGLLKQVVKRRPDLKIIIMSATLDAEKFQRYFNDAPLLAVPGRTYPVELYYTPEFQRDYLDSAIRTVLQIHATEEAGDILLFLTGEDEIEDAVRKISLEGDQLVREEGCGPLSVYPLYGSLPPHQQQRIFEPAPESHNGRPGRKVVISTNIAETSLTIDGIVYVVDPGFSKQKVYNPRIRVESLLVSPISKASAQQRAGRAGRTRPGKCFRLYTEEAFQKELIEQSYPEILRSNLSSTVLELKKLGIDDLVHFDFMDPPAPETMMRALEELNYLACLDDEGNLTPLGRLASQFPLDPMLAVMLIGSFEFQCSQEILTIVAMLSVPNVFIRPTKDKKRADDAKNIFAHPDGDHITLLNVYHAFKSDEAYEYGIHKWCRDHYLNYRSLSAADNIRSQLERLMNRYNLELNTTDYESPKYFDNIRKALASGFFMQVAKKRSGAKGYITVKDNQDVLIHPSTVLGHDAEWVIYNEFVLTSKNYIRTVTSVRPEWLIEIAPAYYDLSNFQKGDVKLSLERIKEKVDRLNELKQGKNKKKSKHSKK
Sequence (Q06411 1-120, chain 2 of 2): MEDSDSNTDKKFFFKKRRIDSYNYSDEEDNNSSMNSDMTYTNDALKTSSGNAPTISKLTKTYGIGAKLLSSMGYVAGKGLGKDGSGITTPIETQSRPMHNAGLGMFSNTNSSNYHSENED

Binding result, binds:
B1
B2
B3

Source: article doi:10.1101/659029
